Reference: patent US20250326863A1

Molecular target: human IgG
Experiment: bio-layer interferometry

B1: recombinant monoclonal low affinity rheumatoid factor RF^low (human IgM; RC1 of Youngblood et al. 1994) (antibody, V domains shown)
VH: QVQLVQSGGGVVQPGRSLRLSCAASGFTFSSYAMHWVRQAPGKGLEWVAVISYDGSNKYYAESVKGRFTISRDNSKNTLYLRMNSLRTEETAVYYCARDGDVGSYGPGTYYPIDYWGQGTLVSVSP
VL: EIVLTQSPATLSLSPGERATLSCRASQSVSSYLAWYQEKPGTAPRLLIYDASNRATGIPARFSGSGSGTDFTLTISSLEPEDFAVYYCQQRRNWPLTFGPGTKVDIK
Question: For B1, which Kd is on record?
Answer: 100 nM
